B1: Pf41 D1D2 (residues 21-368), untagged [Plasmodium falciparum] / octa-histidine tagged Pf12 D1D2 (residues 28-304) [Plasmodium falciparum] (parent complex)
chain 1: KSHKCDFTKEKYLLSGEKEVSCEIDANPSDDITFICPNKIDSLCFHTVNISKNINQNKSTMSIQDLLYGSVVYGNTLFISPYVRTNTPFYCFCNLDTVTIQKFLKINRFLKDDDELSEADVMKHLKGGNVSEAQADEYLNKALNRFKKMKDLSKFFNDQADNTTKLNLPKSLNIPNDILNYDVYNSSNNRNDIVVKDEVTNKQIISKRGIMSVFVRSNNNVIKGCDFGNNNKNYFSHPISVAGKVNNKVCKIQGKPGELVGFKCAFEENGKVEPPNCFDQVLHKNKVTDLKTLIPGYASYTNKHSSKYPYYLKIPHFVNEQYTIQCKCKSNNSQNEYTFELDIQPGES
chain 2: NLTCDFNDVYKLEFHPNQQTSVTKLCNLTPNVLEKVTIKCGSDKLNYNLYPPTCFEEVYASRNMMHLKKIKEFVIGSSMFMRRSLTPNKINEVSFRIPPNMMPEKPIYCFCENKKTITINGSNGNPSSKKDIINRGIVEIIIPSLNEKVKGCDFTTSESTIFSKGYSINEISNKSSNNQQDIVCTVKAHANDLIGFKCPSNYSVEPHDCFVSAFNLSGKNENLENKLKLTNIIMDHYNNTFYSRLPSLISDNWKFFCVCSKDNEKKLVFTVEASISS
B2: Pf12 D1D2 (residues 28-304), untagged [Plasmodium falciparum] / octa-histidine tagged Pf41 D1D2 (residues 21-368) [Plasmodium falciparum] (parent complex)
chain 1: B1 chain 2
chain 2: B1 chain 1

Variants of: B1
Experiment: BLI; mutant at 1000 nM, 500 nM, and 250 nM; binding to immobilised WT Pf12; parent: 100; read off a plot

| Variant | percent of parent |
| --- | --- |
| chain 1 KSHKCDFTKEKYLLSGEKEVSCEIDANPSDDITFICPNKIDSLCFHTVNISKNINQNKSTMSIQDLLYGSVVYGNTLFISPYVRTNTPFYCFCNLDTVTIQKFLKINRFLKDDDELSEADVMKHLKGGNVSEAQADEYLNKALNRLKKMKDLSKFFNDQADNTTKLNLPKSLNIPNDILNYDVYNSSNNRNDIVVKDEVTNKQIISKRGIMSVFVRSNNNVIKGCDFGNNNKNYFSHPISVAGKVNNKVCKIQGKPGELVGFKCAFEENGKVEPPNCFDQVLHKNKVTDLKTLIPGYASYTNKHSSKYPYYLKIPHFVNEQYTIQCKCKSNNSQNEYTFELDIQPGES [chain 1 F146L] | ~122 % WT |

Variants of: B2
Experiment: BLI; mutant at 1000 nM, 500 nM, and 250 nM; binding to immobilised WT Pf41; parent: 100; read off a plot

| Variant | percent of parent |
| --- | --- |
| chain 1 NLTCDFNDVYKLEFHPNQQTSVTKLCNLTPNVLEKVTIKCGSDKLNYNLYPPTCFEEVYASRNMMHLKKIKEFVIGSSMFMRRSLTPNKINEVSFEIPPNMMPEKPIYCFCENKKTITINGSNGNPSSKKDIINRGIVEIIIPSLNEKVKGCDFTTSESTIFSKGYSINEISNKSSNNQQDIVCTVKAHANDLIGFKCPSNYSVEPHDCFVSAFNLSGKNENLENKLKLTNIIMDHYNNTFYSRLPSLISDNWKFFCVCSKDNEKKLVFTVEASISS [chain 1 R96E] | ~3 % WT |
| chain 1 NLTCDFNDVYKLEFHPNQQTSVTKLCNLTPNVLEKVTIKCGSDKLNYNLYPPTCFEEVYASRNMMHLKKIKEFVIGSSMFMRASLTPNKINEVSFRIPPNMMPEKPIYCFCENKKTITINGSNGNPSSKKDIINRGIVEIIIPSLNEKVKGCDFTTSESTIFSKGYSINEISNKSSNNQQDIVCTVKAHANDLIGFKCPSNYSVEPHDCFVSAFNLSGKNENLENKLKLTNIIMDHYNNTFYSRLPSLISDNWKFFCVCSKDNEKKLVFTVEASISS [chain 1 R83A] | ~38 % WT |
| chain 1 NLTCDFNDVYKLEFHPNQQTSVTKLCNLTPNVLEKVTIKCGSDKLNYNLYPPTCFEEVYASRNMMHLKKIKEFVIGSSMFMRRSLTPNKINEVSFRIPPNMMPEKPIYCFCENKKTITINGSNGNPSSKKDIINRGIVEIIIPSLNEKVKGCDFTTSESTIFSKGYSINEISNKSSNNQQDIVCTVKAHANDLIGFKCPSNYSVEPHDCFVSAANLSGKNENLENKLKLTNIIMDHYNNTFYSRLPSLISDNWKFFCVCSKDNEKKLVFTVEASISS [chain 1 F214A] | ~12 % WT |
| chain 1 NLTCDFNDVYKLEFHPNQQTSVTKLCNLTPNVLEKVTIKCGSDKLNYNLYPPTCFEEVYASRNMMHLKKIKEFVIGSSMFMRRSLTPNKINEVSFRIPPNMMPEKPIYCFCENKKTITINGSNGNPSSKKDIINRGIVEIIIPSLNEKVKGCDFTTSESTIFSKGYSINEISNKSSNNQQDIVCTVKAHANDLIGFKCPSNYSVEPHDCFVSAFNLSGKNENLENKLKLTNIIMDHANNTFYSRLPSLISDNWKFFCVCSKDNEKKLVFTVEASISS [chain 1 Y237A] | ~2 % WT |
| chain 1 NLTCDFNDVYKLEFHPNQQTSVTKLCNLTPNVLEKVTIKCGSDKLNYNLYPPTCFEEVYASRNMMHLKKIKEFVIGSSMFMERSLTPNKINEVSFRIPPNMMPEKPIYCFCENKKTITINGSNGNPSSKKDIINRGIVEIIIPSLNEKVKGCDFTTSESTIFSKGYSINEISNKSSNNQQDIVCTVKAHANDLIGFKCPSNYSVEPHDCFVSAFNLSGKNENLENKLKLTNIIMDHYNNTFYSRLPSLISDNWKFFCVCSKDNEKKLVFTVEASISS [chain 1 R82E] | ~0 % WT |
| chain 1 NLTCDFNDVYKLEFHPNQQTSVTKLCNLTPNVLEKVTIKCGSDKLNYNLYPPTCFEEVYASRNMMHLKKIKEFVIGSSMFMRRSLTPNKINEVSFRIPPNMMPEKPIYCFCENKKTITINGSNGNPSSKKDIINRGIVEIIIPSLNEKVKGCDFTTSESTIFSKGYSINEISNKSSNNQQDIVCTVKAHANDLIGFKCPSNYSVEPHDCFVSAFNLSGKNENLENKLKLTNIIMDHYNNTFYSRLPSLISDNWKFACVCSKDNEKKLVFTVEASISS [chain 1 F256A] | ~4 % WT |
| chain 1 NLTCDFNDVYKLEFHPNQQTSVTKLCNLTPNVLEKVTIKCGSDKLNYNLYPPTCFEEVYASRNMMHLKKIKEFVIGSSMFMARSLTPNKINEVSFRIPPNMMPEKPIYCFCENKKTITINGSNGNPSSKKDIINRGIVEIIIPSLNEKVKGCDFTTSESTIFSKGYSINEISNKSSNNQQDIVCTVKAHANDLIGFKCPSNYSVEPHDCFVSAFNLSGKNENLENKLKLTNIIMDHYNNTFYSRLPSLISDNWKFFCVCSKDNEKKLVFTVEASISS [chain 1 R82A] | ~9 % WT |
| chain 1 NLTCDFNDVYKLEFHPNQQTSVTKLCNLTPNVLEKVTIKCGSDKLNYNLYPPTCFEEVYASRNMMHLKKIKEFVIGSSMFMRRSLTPNKINEVSFAIPPNMMPEKPIYCFCENKKTITINGSNGNPSSKKDIINRGIVEIIIPSLNEKVKGCDFTTSESTIFSKGYSINEISNKSSNNQQDIVCTVKAHANDLIGFKCPSNYSVEPHDCFVSAFNLSGKNENLENKLKLTNIIMDHYNNTFYSRLPSLISDNWKFFCVCSKDNEKKLVFTVEASISS [chain 1 R96A] | ~55 % WT |
| chain 1 NLTCDFNDVYKLEFHPNQQTSVTKLCNLTPNVLEKVTIKCGSDKLNYNLYPPTCFEEVYASRNMMHLKKIKEFVIGSSMFMRRSLTPNKINEVSFRIPPNMMPEKPIYCFCENKKTITINGSNGNPSSKKDIINRGIVEIIIPSLNEKVKGCDFTTSESTIFSKGYSINEISNKSSNNQQDIVCTVKAHANDLIGFKCPSNYSVEPADCFVSAFNLSGKNENLENKLKLTNIIMDHYNNTFYSRLPSLISDNWKFFCVCSKDNEKKLVFTVEASISS [chain 1 H207A] | ~116 % WT |
| chain 1 NLTCDFNDVYKLEFHPNQQTSVTKLCNLTPNVLEKVTIKCGSDKLNYNLYPPTCFEEVYASRNMMHLKKIKEFVIGSSAFMRRSLTPNKINEVSFRIPPNMMPEKPIYCFCENKKTITINGSNGNPSSKKDIINRGIVEIIIPSLNEKVKGCDFTTSESTIFSKGYSINEISNKSSNNQQDIVCTVKAHANDLIGFKCPSNYSVEPHDCFVSAFNLSGKNENLENKLKLTNIIMDHYNNTFYSRLPSLISDNWKFFCVCSKDNEKKLVFTVEASISS [chain 1 M79A] | ~27 % WT |
| chain 1 NLTCDFNDVYKLEFHPNQQTSVTKLCNLTPNVLEKVTIKCGSDKLNYNLYPPTCFEEVYASRNMMHLKKIKEFVIGSSMFARRSLTPNKINEVSFRIPPNMMPEKPIYCFCENKKTITINGSNGNPSSKKDIINRGIVEIIIPSLNEKVKGCDFTTSESTIFSKGYSINEISNKSSNNQQDIVCTVKAHANDLIGFKCPSNYSVEPHDCFVSAFNLSGKNENLENKLKLTNIIMDHYNNTFYSRLPSLISDNWKFFCVCSKDNEKKLVFTVEASISS [chain 1 M81A] | ~22 % WT |
| chain 1 NLTCDFNDVYKLEFHPNQQTSVTKLCNLTPNVLEKVTIKCGSDKLNYNLYPPTCFEEVYASRNMMHLKKIKEFVIGSSMFMRRSLTPNKINEVSFRIPPNMMPEKPIYCFCENKKTITINGSNGNPSSKKDIINRGIVEIIIPSLNEKVKGCDFTTSESTIFSKGYSINEISNKSSNNQQDIVCTVKAHANDLIGFKCPSNYSVEPHDCFVSALNLSGKNENLENKLKLTNIIMDHYNNTFYSRLPSLISDNWKFFCVCSKDNEKKLVFTVEASISS [chain 1 F214L] | ~67 % WT |
